The record followed here is paper PMC7460845, “A Fungal Ascorbate Oxidase with Unexpected Laccase Activity” (International Journal of Molecular Sciences, 2020).

The Km is the substrate concentration at which the rate is half of its maximum.

Substrate in data set [1]: CCn1c(=NN=c2sc3cc(S(=O)(=O)O)ccc3n2CC)sc2cc(S(=O)(=O)O)ccc21
Put plainly: spectrophotometric ABTS oxidation, plate reader, Lineweaver-Burk. Type of data set: biochemical, Aspergillus flavus. Conditions: 0.1 M citrate buffer pH 3.4, 25 °C, 0.5 to 20 mM substrate, oxygen as co-substrate.

Substrate in data set [2]: O=C1O[C@H]([C@@H](O)CO)C(O)=C1O
Put plainly: purified protein. Type of data set: biochemical, Aspergillus flavus. Conditions: pH 5.0, 30 °C, 0.05 to 1 mM substrate, oxygen as co-substrate.

B1: Af_AO1 (Aspergillus flavus NRRL3357) (protein)
chain: HLVLHDDSFQPDHILRVTAQDVNQACMDRYSVLINGSLPGPQLNIQEGKVNWIRVYNDMEDLNVTMHWHGLSAFTAPFSDGTPMASQWPIPPGHFFDYEVRPEVGYAGTYFYHSHVGFQALTAWGALIVESAQPSPYQYDEERIIALSDFFTKTDEEIENGLTSTNFTWSGETSAVLVNGQGRLATNATGSCKLAAISVEPGKTYRLRFIGATALSFVSISLESHDVLEIIEADGHYTKPVNTSYLQISSGQRYSVLLKAKTEAELQQAKSRQFYFQLTTMGRPTVLTTFAVLEYPSPTTTDLITVPVTPPLPVANITYGWLDYTLEPYYPDLDFPTVEEVTRRIIINVHQNISDRTVWLQNGYDWVETFPKSPYLVDIYAGTLDLDASYKRAIASGYAFDNQTRLFPAKMGEVLEIVWQNQGAVSNGGVENHPFHAHGRHFYDIGGGDGLYNLTENEARLKGTHPVIRDTTMLYAYRKTTTALEPSGWRAWRIRVTAAGVWMVHCHVLQHMLMGMQTAFAFGDQTAIKAQSGTPAEGYLTYGGSAYGNVTHFPPVKHFFN
notes: natural signal peptide removed, no tag; codon-optimized gene in pPicZalphaB, secreted from Pichia pastoris KM71H; model target 561 residues
As to B1, the Km in data set [1] amounted to 1890 ± 120 µM; in data set [2] it was 160 ± 30 µM.
